What follows are sequences tested on Escherichia coli TOP10 (assay: shrunken log2 fold change of peptide-encoding DNA abundance (4.5 h post-induction vs induction); higher = less antimicrobial activity (less host growth inhibition)). Settings: time post-induction: 4.5 h; library: site-saturation at positions 5, 18, 19, 20.
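Further: peptides expressed intracellularly from a pBAD plasmid library in pooled LB shake-flask culture, induced with 0.3% L-arabinose, DNA abundance read by NGS, three biological replicates, DESeq2 with apeglm shrinkage.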

Sequence	shrunken log2 fold change
RRIRFRPPRLPRPRPRPDNVPRP	-0.336
RRIRRRPPRLPRPRPRPPPVPRP	0.931
RRIRRRPPRLPRPRPRPKVEPRP	-0.0016
RRIRKRPPRLPRPRPRPMGLPRP	-0.000777
RRIRGRPPRLPRPRPRPVFQPRP	0.519
RRIRERPPRLPRPRPRPKHHPRP	-0.217
RRIRFRPPRLPRPRPRPAENPRP	-0.134
RRIRGRPPRLPRPRPRPGFDPRP	0.97
RRIRRRPPRLPRPRPRPFWEPRP	-0.0438
RRIRPRPPRLPRPRPRPCHWPRP	0.0406
RRIRWRPPRLPRPRPRPMFEPRP	-0.0796
RRIRFRPPRLPRPRPRPFRTPRP	-0.444
RRIRKRPPRLPRPRPRPQADPRP	0.0626
RRIRMRPPRLPRPRPRPMQPPRP	-0.000921
RRIRYRPPRLPRPRPRPDRNPRP	-0.018
RRIRSRPPRLPRPRPRPERDPRP	0.138
RRIRFRPPRLPRPRPRPMCKPRP	-0.169
RRIRHRPPRLPRPRPRPFRAPRP	-0.211
RRIRNRPPRLPRPRPRPYCEPRP	-0.469
RRIRKRPPRLPRPRPRPPSGPRP	1.1
RRIRMRPPRLPRPRPRPRIHPRP	0.0221
RRIRDRPPRLPRPRPRPTQYPRP	-0.191

Sequence	shrunken log2 fold change
RRIRVRPPRLPRPRPRPERTPRP	-0.111
RRIRCRPPRLPRPRPRPWYQPRP	-0.272
RRIRTRPPRLPRPRPRPMRDPRP	0.00292
RRIRRRPPRLPRPRPRPFPEPRP	0.212
RRIRCRPPRLPRPRPRPISLPRP	-0.426
RRIRARPPRLPRPRPRPCCWPRP	0.245
RRIRTRPPRLPRPRPRPRFQPRP	0.177
RRIRRRPPRLPRPRPRPDHAPRP	0.0467
RRIRTRPPRLPRPRPRPYASPRP	-0.255
RRIRGRPPRLPRPRPRPGPGPRP	1.65
RRIRGRPPRLPRPRPRPCSLPRP	0.237
RRIRSRPPRLPRPRPRPAMQPRP	-0.173
RRIRRRPPRLPRPRPRPMRMPRP	0.119
RRIRKRPPRLPRPRPRPKHIPRP	-0.0252
RRIRERPPRLPRPRPRPFEWPRP	-0.132
RRIRKRPPRLPRPRPRPSSMPRP	-0.0241
RRIRIRPPRLPRPRPRPRWNPRP	-0.249
RRIRPRPPRLPRPRPRPYYIPRP	-0.88
RRIRSRPPRLPRPRPRPFIAPRP	-0.275
RRIRSRPPRLPRPRPRPEAQPRP	0.438
RRIRNRPPRLPRPRPRPYELPRP	-0.0122
RRIRSRPPRLPRPRPRPKKVPRP	-0.00648

Sequence	shrunken log2 fold change
RRIRQRPPRLPRPRPRPHWGPRP	0.0433
RRIRVRPPRLPRPRPRPQIGPRP	-0.273
RRIRSRPPRLPRPRPRPVAQPRP	0.101
RRIRPRPPRLPRPRPRPQSRPRP	0.161
RRIRSRPPRLPRPRPRPPTEPRP	0.194
RRIRHRPPRLPRPRPRPDPFPRP	-0.409
RRIRTRPPRLPRPRPRPVCGPRP	0.179
RRIRQRPPRLPRPRPRPWAMPRP	-0.0161
RRIRRRPPRLPRPRPRPEYEPRP	-0.022
RRIRHRPPRLPRPRPRPQVLPRP	-0.0535
RRIRKRPPRLPRPRPRPRFRPRP	0.276
RRIRTRPPRLPRPRPRPHEKPRP	-0.0018
RRIRDRPPRLPRPRPRPTARPRP	0.546
RRIRMRPPRLPRPRPRPRDGPRP	2.69
RRIRGRPPRLPRPRPRPASSPRP	0.653
RRIRARPPRLPRPRPRPAEWPRP	0.245
RRIRNRPPRLPRPRPRPIMAPRP	-0.187
RRIRMRPPRLPRPRPRPSLWPRP	1.72
RRIRCRPPRLPRPRPRPPFPPRP	0.302
RRIRTRPPRLPRPRPRPAKSPRP	-0.055
RRIRMRPPRLPRPRPRPNCAPRP	0.317
RRIRNRPPRLPRPRPRPDSDPRP	-0.00992

Sequence	shrunken log2 fold change
RRIRPRPPRLPRPRPRPDSLPRP	-0.257
RRIRSRPPRLPRPRPRPRIEPRP	0.753
RRIRRRPPRLPRPRPRPNGWPRP	0.282
RRIRFRPPRLPRPRPRPYWHPRP	-0.754
RRIRCRPPRLPRPRPRPGEHPRP	-0.0986
RRIRNRPPRLPRPRPRPDFQPRP	-0.156
RRIRNRPPRLPRPRPRPNTPPRP	-0.543
RRIRQRPPRLPRPRPRPQDYPRP	-0.685
RRIRWRPPRLPRPRPRPIEIPRP	-0.101
RRIRYRPPRLPRPRPRPKYEPRP	-0.177
RRIRDRPPRLPRPRPRPFLWPRP	0.625
RRIRNRPPRLPRPRPRPRPGPRP	0.638
RRIRGRPPRLPRPRPRPVRQPRP	0.883
RRIRDRPPRLPRPRPRPHPSPRP	0.0703
RRIRVRPPRLPRPRPRPNVVPRP	-0.109
RRIRWRPPRLPRPRPRPLFRPRP	-0.0807
RRIRCRPPRLPRPRPRPGDCPRP	0.0297
RRIRFRPPRLPRPRPRPKVVPRP	0.291
RRIRSRPPRLPRPRPRPITEPRP	0.0453
RRIRERPPRLPRPRPRPRSMPRP	-0.212
RRIRSRPPRLPRPRPRPFWSPRP	-0.183
RRIRQRPPRLPRPRPRPTCYPRP	-0.309

Sequence	shrunken log2 fold change
RRIRIRPPRLPRPRPRPICVPRP	-0.181
RRIRIRPPRLPRPRPRPARHPRP	0.0869
RRIRMRPPRLPRPRPRPSQNPRP	0.407
RRIRYRPPRLPRPRPRPSFTPRP	-0.91
RRIRERPPRLPRPRPRPFQCPRP	-0.018
RRIRVRPPRLPRPRPRPCIAPRP	-0.298
RRIRWRPPRLPRPRPRPRNYPRP	-0.169
RRIRHRPPRLPRPRPRPNDAPRP	-0.2
RRIRKRPPRLPRPRPRPDSRPRP	-0.188
RRIRRRPPRLPRPRPRPNGMPRP	-0.0764
RRIRRRPPRLPRPRPRPVKEPRP	-0.128
RRIRGRPPRLPRPRPRPTTMPRP	0.451
RRIRYRPPRLPRPRPRPYEMPRP	-0.104
RRIRRRPPRLPRPRPRPHWFPRP	-0.198
RRIRARPPRLPRPRPRPDKTPRP	-0.00345
RRIRNRPPRLPRPRPRPEISPRP	-0.126
RRIRLRPPRLPRPRPRPDRPPRP	0.265
RRIRGRPPRLPRPRPRPNNKPRP	0.0225
RRIRCRPPRLPRPRPRPFYNPRP	-1.05
RRIRKRPPRLPRPRPRPIWRPRP	0.132
RRIRCRPPRLPRPRPRPWIMPRP	-0.275

Reference: the supplement of paper PMC9112550, “Optimization of the antimicrobial peptide Bac7 by deep mutational scanning” (BMC Biology, 2022)
